Experiment: soluble on expression in E. coli; label from the status in PepcDB or PDB records

Soluble on expression in E. coli, not soluble:
MGSDKIHHHHHHMLEQTLLDIALDLSQSLPKKALYQRFMTAVNQVMPCDAVALLEYQGHELVPVAVDGLLPEVLGMGFSPEDHPRLQAIMASKQPIRFNADSELADPYDGYLVIDPKRVLDVHACIGCSLFVEGRLVGVLTLDALNVGAFDAIDDITIATLAALAAATIRNVNLLNQLDRQQYKLDDNDSVFKQKPLKKSDFIGETPCMQALKDDIRIVANSELSVIIGGETGVGKELVARSLHAQSKRRAQALVQVNCAALPDTLAESELFGHSKGAFTGAAKDRMGKFELAHQGTLFLDEVGELSLELQAKLLRVIQEGEIQRIGLDRNIHVDVRIIAASNRNLLQRVKEGLFREDLYHRLCVYPLNVPPLRERQDDIPLLCGNILTNLKHKIGLSSAKTVRLTQAAMQKLQGYPWPGNVRELQHVLMRAALKASAEAKGITVIQLHHLTFACEPMSQGLTELTAFNSNSPDSNPSTSDETFAAANREEKVEPPVISRSFNDRVADFQRQVIRQSLDDNSQVWAKAARQLQLDRGNLHRQAKRLGLIP, MGSDKIHHHHHHMLIIKRSVAIIAILFSPLSTASNLTSQLHNFFSAQLAGVSDEVRVSIRTAPNLLPPCEQPLLSMSNNSRLWGNVNVLARCGNDKRYLQVNVQATGNYVVAAMPIARGGKLEAGNVKLKRGRLDTLPPRTVLDINQLVDAISLRDLSPDQPIQLTQFRQAWRVKAGQRVNVIASGDGFSANAEGQALNNAAVAQNARVRMVSGQVVSGVVDADGNILINL, MGSDKIHHHHHHMLISANFDGGNIEVINQDDINNVQLAIRPDEGGEFFQWFNFRLQGEVGQRYTLNIINAGQASYTKGWEDYQAAATYDRQQWFRLPTQYQDGKLTIEVELDCEMIQIAYFAPYSYERHQDLLSAVQVHPLVSLEHLGKTLDDRDMTLVKVGDEDEEKAKIWITARQHPGETMAEWLVEGLLNNLLDGDCPTAKALLDKANFYIVPNMNPDGGVRGHLRTNAKGVNLNREWQSPSLEKSPEVYHVVNRMKETGVDLYYDVHGDEGLPYVFLAGCEGVPGYNQKMADLQGDFVKALLMASADFQDEFGYDKDEPGQANLTVASNWVAQTFGCLSNTLEMPFKDNANMPDPMSGWSPERCIYLGEASLLAMLAVVDKLR, MGSDKIHHHHHHMLKRIATSLLDIAYDEQGNADGWPVVLLHGFPYDIHAYDAVTPRLTSQGARVITPYLRGYGPTRFLAPTTLRSGQQAALGADLLALLDALQIGQAVLGGYDWGGRAACIVAALYPSRARGLVSVNGYNIQNIAAASQPADPEKEYRMWYQYYLHGERGRAGLTENRREFCRLLWSLWSPTWHFGDDTYARSAAAFDNPDFVDVVVHSYRHRFGLVDGDPQFDDIERRLSAMPPITVPAITLEGDADGVSPPGGRQANSQRFTGRHQNRVVPNAGHNLPQEAPGAFADAVLDINAWAARRSCACGD, MGSDKIHHHHHHMLKRILVIIGLAVLATACSNAPRTVSHQVISENDDIQLTGLINNLEKDNRTGIFHKVRTNRSSALMGDKALASVYNEWVGTRYRMGGTTKRGIDCSAFMQTTFSEVFGIELPRSTAEQRHLGRKINKSELKKGDLVFFRKNNHVGVYIGNNQFMHASTGQGVTISSLDEKYWARTYTQSRRIM, MGSDKIHHHHHHMLLHLSTWQEVEAYLQQSKGIIFPIGSTEQHGPTGLIGTDAICAEAIAAGVGDATGAIVGPTINVGMALHHTAFPGTISLRPSTLIQVVRDYVTCLAKAGFSKFYFINGHGGNIATLKAAFSETYAHLEDLQIANAQQVQCQVANWFMCGSVYKLAKELYGDQEGSHATPSEVALTQYVYPEAIKQAPLSPEVASGHRIYSAADFRVRYPDGRMGSNPGLATPEHGKQFYDLAVKELSNGYLEFVNAD, MGSDKIHHHHHHMLMKSSTEQIRRQNSALVLAALRVEQAMSHTQIAAVTGLASATVTAITSELEQAGVIERHEQQIAGARGRPRVALSRRRDFAYVMSVRISSDRLNYTLSDFRGKLMDRFEEPRPLDVSAAGFIEGLGRNLARLASRSKLEPEKVAVLSVSSKGIVDAGGARLLWTPVFGQQPLDLKAALGDFEKAMALLSNETLLVAHGLSRRMDAQDGTFRGLIALSLGHSIGLGIARPMPDGTVAVSAPNFGHMLNTADSKLCRCGARGCIEASAGFYGILRMAFEVRPDTIPAKFVPITEMDKIALSARQGNRMAQYAFRQAGLALGQGLSRVFSLHETLPVTITGPGTRYYDLLAQGLEEGLAQSLQVRLDGAPPISLVGDEADLVQEGHVDHALRAIDERLFGGG, MGSDKIHHHHHHMLNEMEKTVLQMIMAGSDISRVDISRALGISKPVVSKAVNRLIELGFVKEAGRKESSSKGGRKPVLLSFVPESRYVIGVDIGGTKIDAVLTDLVGNVLNKEHILLPSNLDKRKLLELIKKVIHPFLVYERILGIGIGIPGTVDEDHLVKRIPAFDVTDWDLKEELEKTFGYPVFVENNANLDAFAEAKIGAGRGFRCVLLISVGWGIGSGIVYDGKIFRGARGKAGEFGHIVTDWSKEKEIVLEKGFGHLEEWFSGFSMSKRFGKSPEWVFEKRHNEIKKNLEHFGVAVANAIVLFDPDVVIIKGGIGLHQFEKISAVVRSVVSKIVPEDILKDVEIRKGEIEEYGVAIGGALFVIENILGLKGGGKYEGCQASREVGSKAGV, MGSDKIHHHHHHMLNFYPGPSKLHANIDLHLQQAITSGILSMNHRSMDFMQLYQQVQENFEQFYDLPKDYKVYFTSAATECWTILAQSFPNRSFLHLYNGSFGKKWMEVSKQLEVEHTSVVFDIHGELPVTEINPDTAAEIVCTTLVETSNGTFLSKDIQAAVRETFSDALIAVDATSALAGLSVTWEHADIWFASVQKCFGLPSGLGILILSPTAQHTVEFRSKDIHYNSLKRIVENGASFQTTHTPNILGIYLLAQRLKEIDVTEFFNRNERMNYLYNHFSSHPSLQPLIIEKSVQSATVLTLKGDEEYIKQVKKSLKAQDIIIGSGYGVWKENTIRLANFPAHTDEDFKKLLLVI, MGSDKIHHHHHHMLNLDFAKRVIIETAKQEWVDSPASGVRRKLLEREEAERGRATSIVEYKPGASFSTHEHPLGEEILVLEGVFSDENGDYPAGTYIRNPPGSSHAPFSKDGCKLLVKLHQFQPTDTQVVRINTHEAEWLPGQGGLEVMPLHSHGTEHVALVKWPANEVFKPHRHLGGEEILVLSGEFCDEHGRYPEGTWMRSPHTSVHHPFVDRETIIWVKTGHLG, MGSDKIHHHHHHMLNMSNVPNDSVEEDGRLPTGKLPSAIGKNHRIAVVDTHFHLWKSQEIAPPSGIMADPSLFRDFDWSDYELAMQGVALEAAIHVQVHHGSEKAKSEYGRVERFAAEHAPIAGMIAWAPLESPGVEREIAELAQSPLVAGVRRLTQQEPDELFCARPQFVAGAKLLASYGLVCEVCVLEHQLKGVIALASACPELTIILDHLGKPHLAEPPTEHWLENMRILGMLENVVCKVAPTPLWASDPPLTAAHAAPFIEYVAEHFGWDRLIYGSNWPPLRILTDDASQWADIVFKTLHWAKADELGRLFSENARRIFRLNKGHR, MGSDKIHHHHHHMLNSQSKLDQEVIEGIHRIRENGVLPFIATGRGHFELDEIMSLTGISGAVAMNGQYIVLDGETIYKEEIPTSSVEKLLEAASPHSEALSFYDSQGYWVSELTDLAKTAYAYTHMPMPQADARRYLSQEVNMLLVLTNQLSQVDYYKERVPELNFFMNSPSSIDVTNSTTNKGTGINHVKEVLNFTGQTFAFGDGRNDLDLFKAADHRTAMGNAVPELKELADFISTENTNHGIINAFNHWGIM, MGSDKIHHHHHHMLQLTQVRIWVITFKSYLRMNKNMIKGMIVFATIAEKGSMSAAAQQLNLSSSAVSQQVTKLEMDMGISLFHRNTRNLTLTEAGSLFYENCRKVISIVDSTEQKLNNLKGIPSGELKIAAPVGFGGGLLSEPFQYLLATHPQISLNLVMQDGPIDIVNDGIDLAICIGPLSDSNLIARHLADWRMLLCTSPDYLPMHHNIKHPSELAAFNRINHNYTKGELLTHHPSLECFELTGQRISVNNMQTLIQLTLDGLGYAALPEPEVLDYLDKGVLVPLLPEWSFNTYSVYSVTSARDRQPAKVKEALNALSQYFSQTDFNHADQLKGGSYQTEHIKSGKEHRLGT, MGSDKIHHHHHHMLSLKNINFKGVKGINELELTLSDNPINVLIGTNGIGKTKALEALYTLLIFTNTAFQKYAMNGKDVVFNECLIANEQVIRIDNTESYTYIKQFFTNNKLSHSYPVIFIAAQNRGKIKSENSNSISPLGNADTRAYNYFRHIIRSMENDFSSLNMDMPIEEWIIQRANSSTSYQDEEDNRELELISLLKILNKIDERISCDKSTLKISGDNQVSILVDGKKTKLSALSSGFASLIKIIQSIIAGYSFFTNSRQIENVEGYVLIDEIESHLHLEWQTKILPILSEVFPYTRFIITTHSSLILSQLYTGSASRLVHEGSKIINEDIPNASNFTLIDLLQEAFDIDLNQIKISSTTAKHQERVKKAILDLLGA, MGSDKIHHHHHHMLSLSKPLQEFYRLDKCLSKHGTRFEFVNDKEIICSPDESNTHTFVILEGVVSLVRGDKVLIGIVQAPFIFGLADGVAKKEAQYKLIAESGCIGYRLSSSQTLAIIEQNQLWREAFCWIVWKSQVLELRDKQLIGNNSYDQIRATLMTMIEWDEELRSRIGVMNYIHQRTRVSRSVVAEVLAALRKGNYIEMNKGKLISINRLPSEY, MGSDKIHHHHHHMLSMAGQVIAEDTAKAIEAAVHHEARLERDKARDGSRHPEAILNFFEVAPGQRVLDLFSGGGYYSELLARVVGEQGSVLVHNNQAYLPFAKEDLAERHYQERLPNAEVIISEADELQLPAASFDRIFFILGFHDTYYHEPGWPAIDRERLLQQMFTSLKPGGIVAIIDHDAAPESDTDTAHELHRLAKRHVVDAMEAAGFKLQGSLAVLENPEDKLTLSAFDEAVRGKTSRYVLMFVKPKL, MGSDKIHHHHHHMLSNRELLQKLLKGIETGDPAAAAVVNEEKYIQHYPQTHEGSEGLAVLFARLAKTNPRVRFVRVFEDGDFAFAHNEYDFASLRVAFEVFRFENGRAVEHWDNIQPMLGPNPSGRGMLDGVTQITDLERTEANRALVRDFAQRVLVGRQLDFLGSCVDDGLIQHDPEIADGRAAYRAALEAVTNGQPRLHYTRLHRVLAEGNFVLCMCEGERDGVHSSFYDLFRVENDTIIEHWNTIEAIAPRNEWKNENGKF, MGSDKIHHHHHHMLSRTADHLYWMARYIERAENMARVLDVTYNMSLVPNASQSETTLWEPALQIAGGVDSYRQEYGEVTAGGVVRFLAMDTKNPSSIYSTLRSARENARSVRVTLSAETWENINALWLEFSQFVGMDLMQKGLGEFCDWVKSRSHLFRGVSFGTMLRDDAFRFLRLGTFIERADNTARLLDVKYHLLLPSGEEVGGAVDYYEWSAILRAVSAFHAYQKVFNDAIEPWKVAELLVLREDMPRSLHACFSEITPILDQLNGRHSSECRRLAGELHARLRYGRMTDIFQGGLHEFLTDFITSNNNLGAEIQRTFLNAPINGLAAETE, MGSDKIHHHHHHMLSTANITMQFGAKPLFENVSVKFGEGNRYGLIGANGCGKSTFMKILGGDLEPTSGQVMKDATTRLGKLSQDQFAFESERVIDTVIMGNTELWEVAAERERIYSQTEMSEEDGMKVADLEVRYAELDGYTAEARAGELLLGLGIPLVQHTQPMSVVAPGWKLRVLLAQALFSDPDVLLLDEPTNHLDINTIRWLEEILRSRSSTMLIISHDRHFLNRVCTHMADLDYGELTLFPGNYDEYMTAATQARERLHADNAKKKAEIAELQQFVSRFSANASKAKQATSRQRKIDKIQLDEVKPSSRVSPFIRFEQTKKIHRHALNAEKLSKAWGDNVLFERFDLQVEAGERVAIIGPNGIGKTTLLNCLVGTMTPDAGEVKWTDAAEVGYFAQDHADDFEGGETLFEWMRQWTTEGEQTVRGALGRMLFSNDDIGKSVKVISGGEQGRMLFGKLALQKPNVLVMDEPTNHLDMESIEALNLALENYPGTLIFVSHDREFVGSLATRIIELKDDDIVDFSGSYDDYLRSQSIYD
